Results taken from US20250388664A1 (BIOARCTIC, published 2025).

Columns and labels:
AβpE3-40 monomer [1] = molecular target: T1, AβpE3-40 monomer (UniProt P05067 674-711, pyroglutamate at position 3 (N-terminal residue)); test: SPR, antibody immobilised, monomer injected, 1:1 fit
T1 construct: range 3-40 (Aβ numbering); Synthetic peptide (Bachem/Anaspec), verified monomeric by SEC; also called monomeric AβpE3-40
Experimental: (§1) Single cycle kinetics with the antibodies immobilized on a CM5 chip was used to measure the binding of the antibodies to the different monomers (AβpE3-40, AβpE11-28, Aβ1-28, Aβ2-28, Aβ3-28 and Aβ4-28). For the measurements, 5 μg/ml of analyte antibody was immobilized on the chip. […] Regeneration of the surface between cycles was done by injecting 30 μl 3 M MgCl₂. The binding data was fitted to a 1:1 interaction model.
(§2) In all SPR experiments, 1×HBS-EP+ (Cytiva, cat. no. BR100669) was used as running buffer and to dilute antibodies and target antigens. Experiments were performed at 25° C.

Aβ4-28 monomer = molecular target: T2, Aβ4-28 monomer (UniProt P05067 675-699); test: as above
T2 construct: range 4-28 (Aβ numbering)
Experimental: as §1, §2

AβpE3-42 protofibrils [2] = molecular target: T3, AβpE3-42 protofibrils (UniProt P05067 674-713, pyroglutamate at position 3 (N-terminal residue)); test: SPR, protofibrils immobilised, antibody injected, 1:1 fit, apparent; binding to AβpE3-42 protofibrils (not monomer); KD in pM
T3 construct: range 3-42 (Aβ numbering); Soluble aggregates made from AβpE3-42 peptide, purified in the void peak of SEC; also called AβpE3-42 PF
Experimental: (§3) Single cycle kinetics was also used to measure binding of the antibodies to AβpE3-42 protofibrils. […] For binding to AβpE3-42 protofibrils, the antibodies were injected over the chip using a 3-fold dilution series in five steps starting at 700 nM, using 2 min injection of every antibody concentration and a 60 min dissociation time. Regeneration of the surface between cycles was done by injecting 30 μl 10 mM glycine-HCl pH 1.7. The binding data was fitted to a 1:1 interaction model.
as §2

AβpE3-40 monomer [3] = molecular target: T1, AβpE3-40 monomer; test: inhibition ELISA, antigen titrated in solution, AβpE3-40 coat
Experimental: (§4) For binding to Aβ1-40 and AβpE11-40, the positive control 4G8 (Covance #SIG-39320, epitope: amino acids 17-24 of Aβ) was included. The recombinant antibodies were incubated at a fixed concentration (0.05 μg/ml) with titrating concentrations of the different Aβ antigens. After incubation for 45 min at 900 rpm to reach equilibrium, the antibody-Aβ samples were added to a blocked and washed ELISA plate with an AβpE3-40 coat (0.5 μM). The samples were incubated on the plate for 25 min without shaking followed by washing, incubation with detection antibody, another washing step and finally incubation with alkaline phosphatase substrate.

AβpE11-40 monomer = molecular target: T4, AβpE11-40 monomer (UniProt P05067 682-711, pyroglutamate at position 11 (N-terminal residue)); test: as above
T4 construct: range 11-40 (Aβ numbering)
T4 peptide (looked up): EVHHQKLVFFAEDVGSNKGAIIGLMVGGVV
Experimental: as §4

AβpE3-42 protofibrils [4] = molecular target: T3, AβpE3-42 protofibrils; test: as above
Experimental: as §4

Aβ1-40 monomer = molecular target: T5, Aβ1-40 monomer (UniProt P05067 672-711); test: as above
T5 construct: range 1-40 (Aβ numbering)
Experimental: as §4

Aβ1-28 monomer = molecular target: T6, Aβ1-28 monomer (UniProt P05067 672-699); test: SPR, antibody immobilised
T6 construct: range 1-28 (Aβ numbering)
Experimental: Affinity and specificity evaluation and KD determination by surface plasmon resonance: Binding interactions between antigens and antibodies were evaluated by SPR using a Biacore 8K instrument (Cytiva) according to standard procedures. […] Additionally, the specificity towards different N-truncated forms of Aβ (Aβ2-28, Aβ3-28, Aβ4-28 and AβpE11-28 monomers) was evaluated.
as §1, §2

Aβ1-42 monomer = molecular target: T7, Aβ1-42 monomer (UniProt P05067 672-713); test: ELISA: Aβ monomer captured on a polyclonal anti-Aβ42 coat, hybridoma supernatant diluted 1/243, anti-mouse IgG-HRP
T7 construct: range 1-42 (Aβ numbering)

Aβ2-42 monomer = molecular target: T8, Aβ2-42 monomer (UniProt P05067 673-713); test: as above
T8 construct: range 2-42 (Aβ numbering)

AβpE3-42 protofibrils [5] = molecular target: T3, AβpE3-42 protofibrils; test: SPR, protofibrils immobilised, antibody injected, 1:1 fit, apparent
Experimental: as §3, §2

Aβ2-28 monomer = molecular target: T9, Aβ2-28 monomer (UniProt P05067 673-699); test: SPR, antibody immobilised
T9 construct: range 2-28 (Aβ numbering)
Experimental: as §1, §2

AβpE11-28 monomer = molecular target: T10, AβpE11-28 monomer (UniProt P05067 682-699, pyroglutamate at position 11 (N-terminal residue)); test: SPR, antibody immobilised
T10 construct: range 11-28 (Aβ numbering)
T10 peptide (looked up): EVHHQKLVFFAEDVGSNK
Experimental: as §1, §2

Aβ3-28 monomer = molecular target: T11, Aβ3-28 monomer (UniProt P05067 674-699); test: SPR, antibody immobilised
T11 construct: range 3-28 (Aβ numbering)
Experimental: as §1, §2

[6] = molecular target: T12, h/m apical domain chimera (SEQ ID NO:112) (human/mouse chimera); test: indirect ELISA: plate coated with 1 µg/ml h/m apical domain chimera, mouse IgG titrated, anti-mouse IgG-HRP; x axis printed as 'TfR (ng/ml)'
T12 construct: also called chimeric TfR1 consisting of human apical domain grafted on mouse TfR1 ectodomain
T12 chain: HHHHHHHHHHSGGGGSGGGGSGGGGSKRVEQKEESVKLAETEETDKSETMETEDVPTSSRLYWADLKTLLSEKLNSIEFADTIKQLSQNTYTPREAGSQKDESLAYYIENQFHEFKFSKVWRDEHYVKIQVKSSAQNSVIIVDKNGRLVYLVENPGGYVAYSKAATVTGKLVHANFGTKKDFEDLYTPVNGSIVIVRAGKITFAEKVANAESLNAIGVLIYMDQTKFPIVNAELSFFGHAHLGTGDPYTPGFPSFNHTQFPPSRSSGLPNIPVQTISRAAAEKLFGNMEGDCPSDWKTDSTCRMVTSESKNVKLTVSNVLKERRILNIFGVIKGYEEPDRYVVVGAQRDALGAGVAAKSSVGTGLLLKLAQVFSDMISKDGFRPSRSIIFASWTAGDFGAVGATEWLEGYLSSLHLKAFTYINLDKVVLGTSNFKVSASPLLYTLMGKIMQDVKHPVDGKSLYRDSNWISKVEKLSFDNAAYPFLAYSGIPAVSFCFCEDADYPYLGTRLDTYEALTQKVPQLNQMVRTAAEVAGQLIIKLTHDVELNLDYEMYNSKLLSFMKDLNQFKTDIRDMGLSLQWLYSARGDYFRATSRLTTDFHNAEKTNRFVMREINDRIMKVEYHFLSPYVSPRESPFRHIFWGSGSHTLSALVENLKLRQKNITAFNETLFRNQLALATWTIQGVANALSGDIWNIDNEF
Experimental: Plasma samples serially diluted from a starting dilution of 1/450 or hybridoma supernatants diluted 1/2 were added to the plates (50 μl/well; dilution buffer: PBS with 0.1% BSA and 0.05% TWEEN®-20) and incubated for 2 h at room temperature and then the plates were washed four times. […] After another wash (as above), 50 μl/well TMB substrate (K-Blue® Aqueous, Neogen) was added, and the reaction was stopped after 10-15 min with 50 μl/well of 0.5 M H₂SO₄. The optical density at 450 nm was read using a plate reader (Tecan). The endpoint titers were defined as the dilution above the average of the blank wells (background) plus 3 standard deviations of the blank wells.
(§5) In the ELISA experiment, human, mouse or three different chimeric TfR1 receptors were used to coat ELISA plates (FIGS. 30A-30E). The ELISA protocol was slightly modified as follows from the indirect ELISA described in Example 15. […] The coated plates were then blocked. Dilution series of mouse IgG of the analyzed antibodies were prepared in PBS and incubated on the ELISA plates. Unbound antibodies were then washed off before incubating wells with a HRP-conjugated secondary, anti-mouse-IgG for 1 h. Plates were then washed again before addition of HRP substrate TMB for development and detection of antibody binding to the wells. TMB development was stopped by adding 0.5 M H₂SO₄ to the wells and ELISA responses measured as the OD at 450 nm in an ELISA plate reader.

[7] = molecular target: T13, His10-hTfR1 (SEQ ID NO:109) (human, UniProt P02786 90-760); test: ELISA, hybridoma supernatant
T13 construct: Recombinant, HEK293; also called His-tagged hTfR1; His-tagged hTfR

[8] = molecular target: T14, h/m helical domain chimera (SEQ ID NO:113) (human/mouse chimera, UniProt Q62351 90-763 (mouse entry)); test: indirect ELISA: plate coated with 1 µg/ml h/m helical domain chimera, mouse IgG titrated, anti-mouse IgG-HRP; x axis printed as 'TfR (ng/ml)'
T14 construct: also called chimeric TfR1 consisting of human helical domain grafted on mouse TfR1 ectodomain
T14 chain: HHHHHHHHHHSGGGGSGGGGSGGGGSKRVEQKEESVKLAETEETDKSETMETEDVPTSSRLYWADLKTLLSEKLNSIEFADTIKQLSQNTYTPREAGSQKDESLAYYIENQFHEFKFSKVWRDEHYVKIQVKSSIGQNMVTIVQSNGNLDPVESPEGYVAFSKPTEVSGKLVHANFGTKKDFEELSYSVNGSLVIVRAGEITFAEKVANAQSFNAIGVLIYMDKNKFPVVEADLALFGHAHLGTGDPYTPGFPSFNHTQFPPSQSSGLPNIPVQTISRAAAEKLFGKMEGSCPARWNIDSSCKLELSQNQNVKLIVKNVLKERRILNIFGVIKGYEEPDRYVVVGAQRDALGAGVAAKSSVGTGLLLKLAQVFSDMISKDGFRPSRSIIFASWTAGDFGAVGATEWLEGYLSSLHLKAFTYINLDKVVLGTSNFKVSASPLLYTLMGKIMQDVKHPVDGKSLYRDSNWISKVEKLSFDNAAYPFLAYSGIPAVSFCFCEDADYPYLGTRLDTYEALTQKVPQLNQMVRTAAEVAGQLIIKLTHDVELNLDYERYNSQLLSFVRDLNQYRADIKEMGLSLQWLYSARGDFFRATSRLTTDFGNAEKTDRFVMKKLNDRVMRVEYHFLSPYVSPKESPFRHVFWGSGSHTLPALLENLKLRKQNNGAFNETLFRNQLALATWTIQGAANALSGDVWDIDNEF
Experimental: as §5

[9] = molecular target: T15, ectodomain of human TfR1 (His10-hTfR1; SEQ ID NO:110) (human, UniProt P02786 89-760); test: indirect ELISA: plate coated with 1 µg/ml hTfR1 ectodomain, mouse IgG titrated, anti-mouse IgG-HRP; x axis printed as 'TfR (ng/ml)'
T15 construct: also called ectodomain of hTfR1
Experimental: as §5

[10] = molecular target: T16, hTfR1 (recombinant, construct not specified) (human, UniProt P02786 89-760, limits assumed); test: BLI: IgG captured from hybridoma supernatant on anti-mouse capture sensors, 250 nM hTfR1 in solution, 120 s association, 90 s dissociation
T16 construct: also called biotinylated hTfR1
Experimental: Next, sensors with immobilized IgGs were briefly washed for 10 s before incubation in running buffer to establish a baseline signal. […] All proteins were diluted in running buffer. Target dissociation was measured by incubating the biosensors in running buffer for 90 s.

T2 sequence (P05067 675-699): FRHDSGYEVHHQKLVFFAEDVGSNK
T3 sequence (P05067 674-713): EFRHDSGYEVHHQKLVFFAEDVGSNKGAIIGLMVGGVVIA
T6 sequence (P05067 672-699): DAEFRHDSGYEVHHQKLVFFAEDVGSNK
T7 sequence (P05067 672-713): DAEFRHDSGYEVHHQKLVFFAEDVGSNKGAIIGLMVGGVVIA
T9 sequence (P05067 673-699): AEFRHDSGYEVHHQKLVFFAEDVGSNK
T11 sequence (P05067 674-699): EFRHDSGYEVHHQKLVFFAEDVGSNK
T8 sequence (P05067 673-713): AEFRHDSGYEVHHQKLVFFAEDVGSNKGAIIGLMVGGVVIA

B1: Pyr7.1 (antibody, V domains shown)
VH: KVQLQQSGPELVKPGTSIKMSCKTSGYSFTGYTLNWVKQSPGKNPEWIGLINPYNGITTYNPKFMGKATLTVDKSSSTAYMELLSLTSEDSAVYYCSREGNWEGVYWGQGTLVTVSA
VL: not shown
notes: Murine anti-AβpE3 antibody; also called recombinant antibody Pyr7.1; hybridoma clone Pyr7.1
AβpE3-40 monomer [1]
  Kd: 2.3 nM
  koff: 0.000122 s⁻¹
  kon: 53200 M⁻¹ s⁻¹
Aβ4-28 monomer
  Kd: 8310 nM
  koff: 0.454 s⁻¹
  kon: 102000 M⁻¹ s⁻¹
AβpE3-42 protofibrils [2]
  Kd: 0.031 nM
AβpE3-40 monomer [3]
  IC50: 2.85 nM
AβpE11-40 monomer
  IC50: > 5000 nM
AβpE3-42 protofibrils [4]
  IC50: 12.8 nM
Aβ1-40 monomer
  IC50: > 5000 nM
Aβ1-28 monomer
  binding result: no binding (tested: 2500 nM)
Aβ1-42 monomer
  binding result: no binding
Aβ2-42 monomer
  binding result: no binding
AβpE3-42 protofibrils [5]
  koff: 2.29e-06 s⁻¹
  kon: 78200 M⁻¹ s⁻¹
Aβ2-28 monomer
  binding result: no binding (tested: 2500 nM)
AβpE11-28 monomer
  binding result: no binding (tested: 2500 nM)
Aβ3-28 monomer
  binding result: no binding (tested: 2500 nM)

B2: 37D10 (antibody, V domains shown)
VH: QVQLQQSGAELVRPGTSVKISCKASGYAFTNYWLGWVKQRPGHGLEWIGDIFPGSDNTYYNEKFKGKATLTADKSSSTAYMQLSSLASEDSAVYFCARSGNFYAMDYWGQGTSVTVSS
VL: ENVLTQSPAIMSASPGEKVTMTCSASSSVNYMNWYQQKSSTFPKLWIYDTSKLASGVPGRFSGSGSGKFYSLTISSMEAEDVATYYCFQGSGYPFTFGSGTKLEIK
notes: also called mouse antibody 37D10; clone 37D10
[6]
  binding result: no binding (tested: about 600 ng/ml)
[7]
  binding result: binds
[8]
  binding result: no binding (tested: about 600 ng/ml)
[9]
  binding result: binds
[10]
  binding result: binds
